Here are results for two molecules from patent publication US20100021479A1 (Bristol-Myers Squibb, published 2010).

The target of test [1] is T1, human CD30 (human, UniProt P28908 19-595).
T1 construct: whole, on cells; The target was always presented on cells; also called CD30 antigen
T1 sequence (looked up): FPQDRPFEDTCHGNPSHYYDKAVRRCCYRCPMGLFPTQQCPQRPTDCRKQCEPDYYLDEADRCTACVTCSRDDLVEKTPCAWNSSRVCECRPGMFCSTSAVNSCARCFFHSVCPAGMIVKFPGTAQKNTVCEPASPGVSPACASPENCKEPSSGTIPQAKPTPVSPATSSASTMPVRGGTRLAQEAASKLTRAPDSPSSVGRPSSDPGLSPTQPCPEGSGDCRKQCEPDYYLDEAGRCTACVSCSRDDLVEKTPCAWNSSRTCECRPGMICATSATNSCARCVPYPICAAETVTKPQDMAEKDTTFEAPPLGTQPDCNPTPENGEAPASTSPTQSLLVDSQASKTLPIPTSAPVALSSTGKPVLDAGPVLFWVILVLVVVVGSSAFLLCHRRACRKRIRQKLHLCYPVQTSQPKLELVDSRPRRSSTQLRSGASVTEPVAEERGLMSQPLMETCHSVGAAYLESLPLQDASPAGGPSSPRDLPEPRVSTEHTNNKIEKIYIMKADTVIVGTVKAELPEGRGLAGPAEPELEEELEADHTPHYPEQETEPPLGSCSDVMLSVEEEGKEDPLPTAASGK
The experiment in a line: Scatchard analysis, 125I-labelled antibody on CD30 positive L540 cells, 4 °C. As for the experimental part: (§1) Human or cynomolgus peripheral blood cells were stimulated with 2 μg/ml PHA, 10 μg/ml Con A, and 50 U/ml rIL-2 and cultured in RPMI1640 media containing 10% fetal bovine serum (FBS) at 1×10⁶ cells/ml density for 3 days. On the day of the study, the cells were washed and adjusted to 2×10⁷ cells/m in binding buffer (RPMI1640+10% FBS). As a control, CD30 positive L540 cells (adjusted to 4-8×10⁶ cells/ml) were used in these studies since they express high levels of the antigen. The cells were placed on ice until the initiation of the experiment. Millipore glass fiber filter plates (MAFBN0B50) were coated with 1% nonfat dry milk in water and stored a 4° C. overnight. The plates were washed three times with 0.2 ml of binding buffer. Fifty microliters of buffer alone was added to the maximum binding wells (total binding). Twenty-five microliters of buffer alone was added to the control wells. Varying concentration of ¹²⁵I-anti-CD30 antibody was added to all wells in a volume of 25 μL. Varying concentrations of unlabeled antibody at 300-400 fold excess were added in a volume of 25 μl to control wells (non-specific binding) and 25 μl of CD30 positive L540 cells or stimulated human or cynomolgus peripheral blood cells in binding buffer were added to all wells. The plates were incubated for 2 hours at 200 RPM on a shaker at 4° C. […] The filters were removed and counted in a gamma counter. […]

In test [2] the target is T1, human CD30. The test is described as follows: cell-based or functional assay.
Test [3] has as its target T1, human CD30. The test is described as follows: Scatchard analysis, 125I-labelled antibody on PHA/Con A/rIL-2-activated human peripheral blood cells, 4 °C. The protocol:
as §1

Test [4] concerns the target T2, cynomolgus CD30 on PHA, Con A and rIL-2 activated cynomolgus peripheral blood mononuclear cells (cynomolgus, UniProt A0A2K5VW07 29-603).
T2 construct: whole, on cells
T2 sequence: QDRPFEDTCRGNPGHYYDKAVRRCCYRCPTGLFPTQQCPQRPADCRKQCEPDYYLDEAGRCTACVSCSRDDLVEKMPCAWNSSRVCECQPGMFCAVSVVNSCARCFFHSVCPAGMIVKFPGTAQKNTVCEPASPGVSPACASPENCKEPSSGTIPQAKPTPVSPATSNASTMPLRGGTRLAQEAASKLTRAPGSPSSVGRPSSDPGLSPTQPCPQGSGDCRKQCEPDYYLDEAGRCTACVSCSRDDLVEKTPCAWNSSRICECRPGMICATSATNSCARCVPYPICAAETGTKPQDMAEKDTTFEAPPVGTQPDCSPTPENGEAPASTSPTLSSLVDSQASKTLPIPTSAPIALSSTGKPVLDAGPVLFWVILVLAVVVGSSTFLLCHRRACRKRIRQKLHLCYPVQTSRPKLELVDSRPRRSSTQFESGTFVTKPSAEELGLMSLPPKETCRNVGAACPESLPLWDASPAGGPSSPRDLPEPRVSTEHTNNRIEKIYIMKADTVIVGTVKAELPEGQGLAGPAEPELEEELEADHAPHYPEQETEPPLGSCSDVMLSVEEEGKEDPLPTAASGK
The test is described as follows: Scatchard analysis, 125I-labelled antibody on PHA/Con A/rIL-2-activated cynomolgus peripheral blood mononuclear cells, 4 °C. As for the experimental part:
as §1

B1: fucosylated 5F11 anti-CD30 fully human monoclonal antibody (expressed in CHO DG44 cells) (antibody, IgG1, V domains shown)
VH: QVQLQQWGAGLLKPSETLSLTCAVYGGSFSAYYWSWIRQPPGKGLEWIGDINHGGGTNYNPSLKSRVTISVDTSKNQFSLKLNSVTAADTAVYYCASLTAYWGQGSLVTVSS
VL: DIQMTQSPTSLSASVGDRVTITCRASQGISSWLTWYQQKPEKAPKSLIYAASSLQSGVPSRFSGSGSGTDFTLTISSLQPEDFATYYCQQYDSYPITFGQGTRLEIK
notes: It was made in CHO DG44 (FUT8+/+) cells, so the carbohydrate contains fucose; also called fuc-5F11; Anti-CD30 + fucose
In the test with human CD30 [1], B1 came in with a Kd of 1.37 nM. In addition, in the test with human CD30 [2], the “EC50 of ADCC, Karpas cells” value is 0.25 µg/mL; the “EC50 of ADCC, L428 cells” value came out at 0.1 µg/mL; the “EC50 of ADCC, L540 cells” value was 0.042 µg/mL; the “EC50 of ADCC, L1236 cells” value was 1.22 µg/mL. Also, the Kd with human CD30 [3] is 1.08 nM. Moreover, binding in test [4] was characterised by a dissociation constant (Kd) of 0.47 nM.

B2: defucosylated 5F11 anti-CD30 fully human monoclonal antibody (expressed in FUT8-/- Ms704 cells) (antibody, V domains shown)
VH: B1 VH
VL: B1 VL
On to B2, for which, in the test with human CD30 [2], the “% Lysis ratio fucose-:fucose+, ADCC, Karpas cells” value came to 2.63 fold; the “% Lysis ratio fucose-:fucose+, ADCC, L428 cells” value is 2.15 fold; the “% Lysis ratio fucose-:fucose+, ADCC, L540 cells” value was found to be 1.61 fold; the “% Lysis ratio fucose-:fucose+, ADCC, L1236 cells” value is 3.25 fold. Moreover, in the test with human CD30 [2], the “EC50 ratio fucose+:fucose-, ADCC, Karpas cells” value amounted to 7.8 fold; the “EC50 ratio fucose+:fucose-, ADCC, L428 cells” value came to 11.1 fold; the “EC50 ratio fucose+:fucose-, ADCC, L540 cells” value is 4.7 fold; the “EC50 ratio fucose+:fucose-, ADCC, L1236 cells” value stood at 27.1 fold.

The Kd is the constant that tells how readily two partners part at equilibrium. The low end stands for a tighter complex, the high end for a looser complex.
